# Paper PMC6224377 (Frontiers in Immunology, 2018)
# Assays:
# [1] = biological target: T1, hROR2-ECD-Twin-Strep (soluble human ROR2 extracellular domain fused to a Twin-Strep-tag) (Homo sapiens (Human)., UniProt Q01974); experiment: SPR; multi-cycle SPR, Biacore T200; antibodies captured on a CM5 Protein A chip or by Protein G immobilized on a CM5 chip (capture levels 148 to 845 RU); hROR2-ECD-Twin-Strep as analyte, 2-fold serial dilutions 40 nM to 2.5 nM in running buffer; details: both partners purified
# T1 construct: signal peptide in the construct; extracellular domain of human receptor tyrosine kinase-like orphan receptor 2 (ROR2), NP_004551.2, amino acids 1-403; Gene synthesis (GenScript), vector pCB14b; also called hROR2-Twin-Strep; human ROR2-ECD-Twin-Strep; not shown: Twin-Strep-tag, C-terminal, kept
# T1 sequence (Q01974 34-403): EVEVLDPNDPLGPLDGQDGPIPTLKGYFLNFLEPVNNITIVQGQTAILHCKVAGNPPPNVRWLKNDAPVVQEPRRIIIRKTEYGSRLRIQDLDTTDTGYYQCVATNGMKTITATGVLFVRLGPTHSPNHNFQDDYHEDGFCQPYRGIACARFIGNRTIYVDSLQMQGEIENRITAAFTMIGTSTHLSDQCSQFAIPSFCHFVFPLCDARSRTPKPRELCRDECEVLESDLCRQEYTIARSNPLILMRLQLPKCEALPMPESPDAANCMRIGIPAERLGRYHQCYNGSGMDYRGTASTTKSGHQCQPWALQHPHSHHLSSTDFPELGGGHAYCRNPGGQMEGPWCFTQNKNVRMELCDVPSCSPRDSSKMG
# [2] = biological target: T1, hROR2-ECD-Twin-Strep (soluble human …); experiment: ELISA; MaxiSorp plates coated with 2 μg/ml antigen in 100 mM bicarbonate/carbonate buffer; purified monoclonal antibodies from 0.5-2 μg/ml in serial dilutions in PBS-T/1% BSA, 1 h at 37°C; detected with HRP-conjugated F(ab')2 anti-human Fcγ; details: both partners purified
Binder,binding result [1],binding result [2]
"GK-5G12 (antibody, V domains shown) VH: QITLKESGGGVVQPGRSLRLSCAASGFTFRTYGMHWVRQAPGKGLEWVALIWYDGSNKYYADSVKGRFTISRDNSKNTLYLQMNSLRAEDTAVYYCIRVKFGDLYFQHWGQGTLVTVSS VL: EIVLTQSPSSLSASVGDRVTITCRASQGISNYLAWYQQKPGKVPKLLIYAASTLQSGVPSRFSGSGSGTDFTLTISSLQPEDVATYYCQKYNSAPYTFGQGTKLEIK",,binds
"GK-1E5 (antibody, V domains shown) VH: EVQLVESGGGVVQPGRSLRLSCAASGFTFRSYGMHWVRQAPGKGLEWVAIIWYDGSKKYYTDSVQGRFTISRDNSKNTLYLQMNSLRAEDTAVYYCARPGIAMTGLDYWGQGTLVTVSS VL: DIQLTQSPSTLSASVGDRVTITCRASQSISSWLAWYQQKPGKAPKLLIYKASSLESGVPSRFSGSGSGTEFTLTISSLQPDDFATYYCQQYNNYWTFGQGTKVEIK",,binds
"GK-2G8 (antibody, V domains shown) VH: QVQLQESGGGVVQPGRSLRLSCAASGFTFRSYGMHWVRQAPGKGLEWVAIIWYDGSKKYYTDSVKGRFTISRDNSKNTLYLQMNSLRAEDTAVYYCARPGVAMTGLDLWGQGTLVTVSS VL: EIVMTQSPSTLSASVGDRVTITCRASQSISSWLAWYQQKPGKAPKLLIYKASSLESGVPSRFSGSGSGTEFTLTISSLQPDDFATYYCQQYNNYWTFGQGTKVDIK",,binds
"MK-7C3 (antibody, V domains shown) VH: EVQLLETGGGVVQPGRSLRLSCVASGFTFRSHGMHWVRQAPGKGLEWVALIWYDGSKKYYADSVKGRFTISRDNSKNTLYLQMNSLRAEDTAVYYCARVGAGLYLDYWGQGTLVTVSS VL: AIRMTQSPSTLSASVGDRVTITCRASQTISNWLAWFQQKPGKAPKVLIYKASSLESGVPSRFSGSGSGTEFTLTISSLQPDDFASYYCQQYNSYSYTFGQGTRLEIK",binds,

# Results, then the binder that gave them:
binding result [1],binding result [2],Binder
binds,,"GK-22G12 (antibody, V domains shown) VH: EVQLVESGGGLVQSGGSLRLSCAASGFTFSSQRLSWVRQAPGKGLEWVANIKQDGSEKNYVDSVRGRFTISRDIAKNSLYLQMNSLRAEDTAVYYCARDGYRNGWHIPEDYWGQGTLVTVSS VL: DIVMTQSPSSLSASVGDRVTITCRASQGISNYLAWYQQKPGKVPKLLIYAASTLQSGVPSRFSGSGSGTDFTLTISSLQPEDVSTYYCQKHNRAPWTFGQGTKLEIK"
,binds,"GK-5E1 (antibody, V domains shown) VH: QVTLKESGGDVVQPGRSLRLSCAASGFTFRTYGMHWVRQAPGKGPEWVALIWYDGSKKYYADSVKGRFTISRDNSKNTLYLQMNSLRAEDTAVYYCVRVRFGELYFQHWGQGTLVTVSS VL: not shown"
binds,,"MK-24C10 (antibody, V domains shown) VH: QVQLVESGGGVVQPGRSLRLSCAASGFTFSSYGMHWVRQAPGKGLEWVAVIWFDGTNKHYADSVKGRFTISRDNSKNTLYLQMNSLRAEDTAVYYCARDKGEWFGELRYYYYGMDVWGQGTTVTVSS VL: not shown"
,binds,"GK-5A1 (antibody, V domains shown) VH: QVQLVESGGGVVQPGRSLRLSCAASGFTFSSYGMYWVRQAPGKGLEWVAVIWNDGSNKYYADSVKGRFTISRDNSKNTLYLQMNSLRAEDTAVYYCAREGSGWYDYYYGMDVWGQGTTVTVSS VL: EIVLTQSPSTLSASVGDRVTITCRASQSISSWLAWYQQKPGKAPKLLIYKASSLESGVPSRFSGSGSGTEFTLTISSLQPDDFATYYCQQYNSYWTFGQGTKVDIK"
,binds,"MK-3B12 (antibody, V domains shown) VH: EVQLVESGPGLLKPSETLSLTCAVSGYSISSGYYWGWIRQPPGKGLEWIGSIYQSGSTHYNPSLKSRVTISVDTSKNQFSLKLTSVTAADTAVYYCAREDRAGWYPFDCWGQGTLVTVSS VL: DIVMTQSPSTLSASVGDRVTITCRASQSISSWLAWYQQKPGKAPKLLIYKASSLESGVPSRFSGSGSGTEFTLTISSLQPDDFATYYCQQYNNYWTFGQGTKVEIK"
